From publication PMC11484861 (Nature Communications, 2024) come the findings set out here.

This experiment concerns the target GFP-PDPK1 (human (cloned from HEK293T cells)) (UniProt O15530). Put plainly: MST.

Sequence of GFP-PDPK1 (human (cloned from HEK293T cells)) (O15530 whole entry): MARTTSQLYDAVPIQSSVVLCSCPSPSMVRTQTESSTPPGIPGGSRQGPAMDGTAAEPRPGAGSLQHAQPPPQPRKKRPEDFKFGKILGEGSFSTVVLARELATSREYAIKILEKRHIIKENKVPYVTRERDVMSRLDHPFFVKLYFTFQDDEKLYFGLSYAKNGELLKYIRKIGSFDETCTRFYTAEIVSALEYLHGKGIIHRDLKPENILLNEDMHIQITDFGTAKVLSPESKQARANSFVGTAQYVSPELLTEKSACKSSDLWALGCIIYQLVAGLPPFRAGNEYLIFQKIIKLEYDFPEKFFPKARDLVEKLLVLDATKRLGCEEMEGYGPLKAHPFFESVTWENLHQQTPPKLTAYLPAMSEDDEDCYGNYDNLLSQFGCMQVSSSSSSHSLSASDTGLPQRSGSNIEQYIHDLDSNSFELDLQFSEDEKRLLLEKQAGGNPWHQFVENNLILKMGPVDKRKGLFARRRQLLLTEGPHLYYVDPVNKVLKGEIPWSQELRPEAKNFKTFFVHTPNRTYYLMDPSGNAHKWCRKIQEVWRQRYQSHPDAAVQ

Usually Kd stands for the free concentration of one partner at which half of the binding sites on the other are occupied at equilibrium, for simple one-to-one binding. Read a low Kd as a tighter complex. “unlabeled MΔβ3-5 (MST ligand) (from UniProt P0DTC5 1-222) (domain or fragment)” came in with a Kd of 37.8 µM.
